One molecule from US20220119490A1 (Genentech, published 2022) can be followed below.

One assay addresses T1, UNC5D (human, UniProt Q6UXZ4).
T1 construct: expressed on cells; also called UNC5D expressed on cells
T1 sequence (cell-surface-expressed binding partner, looked up): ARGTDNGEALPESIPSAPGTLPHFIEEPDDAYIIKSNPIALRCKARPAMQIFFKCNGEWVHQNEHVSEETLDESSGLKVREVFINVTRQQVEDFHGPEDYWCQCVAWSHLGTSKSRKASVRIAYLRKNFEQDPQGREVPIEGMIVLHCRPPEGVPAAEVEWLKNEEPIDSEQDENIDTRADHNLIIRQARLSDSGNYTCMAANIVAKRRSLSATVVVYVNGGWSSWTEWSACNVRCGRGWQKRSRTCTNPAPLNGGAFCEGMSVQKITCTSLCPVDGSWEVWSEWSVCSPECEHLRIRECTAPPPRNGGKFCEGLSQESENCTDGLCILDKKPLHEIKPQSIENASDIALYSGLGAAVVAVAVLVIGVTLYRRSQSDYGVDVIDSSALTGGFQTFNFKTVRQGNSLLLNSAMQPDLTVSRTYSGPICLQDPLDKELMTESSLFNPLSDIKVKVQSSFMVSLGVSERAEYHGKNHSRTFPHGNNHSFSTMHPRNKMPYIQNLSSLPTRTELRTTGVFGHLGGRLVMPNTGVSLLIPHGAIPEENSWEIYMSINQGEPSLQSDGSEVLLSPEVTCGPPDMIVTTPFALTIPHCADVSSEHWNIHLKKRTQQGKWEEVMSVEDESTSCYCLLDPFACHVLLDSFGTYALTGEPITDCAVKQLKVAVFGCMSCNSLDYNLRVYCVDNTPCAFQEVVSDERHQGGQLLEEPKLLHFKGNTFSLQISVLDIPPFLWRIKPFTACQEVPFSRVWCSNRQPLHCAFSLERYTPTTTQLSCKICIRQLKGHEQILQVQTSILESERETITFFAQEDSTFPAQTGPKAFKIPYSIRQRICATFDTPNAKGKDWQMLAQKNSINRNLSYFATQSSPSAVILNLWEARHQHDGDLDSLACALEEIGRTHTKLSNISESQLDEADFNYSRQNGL
Put plainly: cell surface interaction assay: query ECD tetramerised with fluorescent streptavidin on transfected cells, immunofluorescence.

Another assay concerns the target T2, UNC5A (human, UniProt Q6ZN44).
T2 construct: expressed on cells; also called UNC5A expressed on cells
T2 sequence (cell-surface-expressed binding partner, looked up): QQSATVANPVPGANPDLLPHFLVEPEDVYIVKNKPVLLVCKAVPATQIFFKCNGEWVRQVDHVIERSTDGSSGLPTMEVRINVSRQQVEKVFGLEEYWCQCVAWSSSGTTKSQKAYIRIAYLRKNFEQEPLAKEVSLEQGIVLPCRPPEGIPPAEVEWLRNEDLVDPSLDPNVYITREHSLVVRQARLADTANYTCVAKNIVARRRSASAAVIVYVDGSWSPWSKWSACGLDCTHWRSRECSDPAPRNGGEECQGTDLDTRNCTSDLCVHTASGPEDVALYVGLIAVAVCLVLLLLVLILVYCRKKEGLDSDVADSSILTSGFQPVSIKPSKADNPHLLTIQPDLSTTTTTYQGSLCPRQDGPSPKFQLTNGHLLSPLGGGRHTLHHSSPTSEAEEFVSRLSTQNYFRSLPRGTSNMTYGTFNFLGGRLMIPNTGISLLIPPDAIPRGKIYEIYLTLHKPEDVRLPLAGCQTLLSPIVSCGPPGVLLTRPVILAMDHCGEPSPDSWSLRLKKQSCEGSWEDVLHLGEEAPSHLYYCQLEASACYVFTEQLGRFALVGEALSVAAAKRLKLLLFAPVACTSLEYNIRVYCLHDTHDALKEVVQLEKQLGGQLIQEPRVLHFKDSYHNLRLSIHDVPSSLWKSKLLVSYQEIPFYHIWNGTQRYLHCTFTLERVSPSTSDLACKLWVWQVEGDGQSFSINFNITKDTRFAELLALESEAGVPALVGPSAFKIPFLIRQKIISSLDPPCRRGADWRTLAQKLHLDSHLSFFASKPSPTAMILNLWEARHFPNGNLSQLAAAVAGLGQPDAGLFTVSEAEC
The description is as above.

B1: FLRT3 (receptor, human, UniProt Q9NZU0 29-528, looked up)
soluble query ectodomain: KSCPSVCRCDAGFIYCNDRFLTSIPTGIPEDATTLYLQNNQINNAGIPSDLKNLLKVERIYLYHNSLDEFPTNLPKYVKELHLQENNIRTITYDSLSKIPYLEELHLDDNSVSAVSIEEGAFRDSNYLRLLFLSRNHLSTIPWGLPRTIEELRLDDNRISTISSPSLQGLTSLKRLVLDGNLLNNHGLGDKVFFNLVNLTELSLVRNSLTAAPVNLPGTNLRKLYLQDNHINRVPPNAFSYLRQLYRLDMSNNNLSNLPQGIFDDLDNITQLILRNNPWYCGCKMKWVRDWLQSLPVKVNVRGLMCQAPEKVRGMAIKDLNAELFDCKDSGIVSTIQITTAIPNTVYPAQGQWPAPVTKQPDIKNPKLTKDHQTTGSPSRKTITITVKSVTSDTIHISWKLALPMTALRLSWLKLGHSPAFGSITETIVTGERSEYLVTALEPDSPYKVCMVPMETSNLYLFDETPVCIETETAPLRMYNPTTTLNREQEKEPYKNPNLP
modifications: biotinylated
notes: extracellular domain; also called soluble query
For the molecule B1, the binding result with UNC5D and with UNC5A was “binds” each time.
